Data set [1] deals with T1, hTop2βcore (DNA-binding and cleavage core of human topoisomerase 2β) (human, UniProt Q02880-2 445-1201). Put plainly: X-ray crystallography (3.87 Å); open DNA-gate cleavage complex; Mn2+ (2 mM MnCl2), Mg acetate; etoposide or doxorubicin in crystallization mix, refined as binary complex; Crystallization: 5 mg/mL (~28 uM) protein, ~34 uM duplex, 2 mM etoposide or doxorubicin, 30 mM Tris-HCl pH 7.0, 70 mM NaCl, 2 mM MnCl2 (MgCl2 for P21), 1 mM EDTA, 2 mM β-mercaptoethanol; reservoir 100 mM Mg acetate, 50 mM MES pH 5.8 (5.6 for P21), …. Particulars: protein: recombinant; chain copies: 2; blunt; self-complementary, 2 copies; cleaved with 4-nt stagger in the complex.

Data set [2] deals with T1, hTop2βcore (DNA-binding and cleavage …). Put plainly: X-ray crystallography (2.75 Å); open DNA-gate cleavage complex; Mn2+ (2 mM MnCl2), Mg acetate; etoposide or doxorubicin in crystallization mix, refined as binary complex; Crystallization: 5 mg/mL (~28 uM) protein, ~34 uM duplex, 2 mM etoposide or doxorubicin, 30 mM Tris-HCl pH 7.0, 70 mM NaCl, 2 mM MnCl2 (MgCl2 for P21), 1 mM EDTA, 2 mM β-mercaptoethanol; reservoir 100 mM Mg acetate, 50 mM MES pH 5.8 (5.6 for P21), …. The note with it: protein: recombinant; chain copies: 2; blunt; self-complementary, 2 copies of S1; cleaved with 4-nt stagger in the complex.

Data set [3] concerns the molecule itself. Put plainly: crystal structure; open DNA-gate form of the hTop2β^core-DNA cleavage complex, space group P3_(2)21, one subunit in the asymmetric unit, homodimer built by the crystallographic twofold axis; 2.75 Å (5ZEN) and 3.87 Å with iodine-labelled DNA (5ZQF); MnCl2 in the sample buffer, reservoir pH 5.8, 4 °C.

B1: 20-bp G-segment duplex, 5-iododeoxyuridine labeled (DNAI) (dsDNA)
DNA 1: AGCCGAGCUGCAGCUCGGCU
DNA 2: AGCCGAGCUGCAGCUCGGCU
modifications: 5-iodo-2'-deoxyuridine replaces all thymidines (positions 9, 15, 20 of each strand); U denotes iododeoxyuridine, DNA backbone
On to B1, for which the binding result in data set [1] is “binds”.

B2: 20-bp G-segment duplex (native) (dsDNA)
DNA 1: AGCCGAGCTGCAGCTCGGCT
DNA 2: AGCCGAGCTGCAGCTCGGCT
Turning to B2, the binding result in data set [2] is listed as “binds”.

B3: DNA-binding and cleavage core of human topoisomerase 2β (hTop2β^core), in the covalent cleavage complex with a 20-bp duplex DNA (domain or fragment, UniProt Q02880-2 445-1201, looked up)
chain: SVKYSKIKGIPKLDDANDAGGKHSLECTLILTEGDSAKSLAVSGLGVIGRDRYGVFPLRGKILNVREASHKQIMENAEINNIIKIVGLQYKKSYDDAESLKTLRYGKIMIMTDQDQDGSHIKGLLINFIHHNWPSLLKHGFLEEFITPIVKASKNKQELSFYSIPEFDEWKKHIENQKAWKIKYYKGLGTSTAKEAKEYFADMERHRILFRYAGPEDDAAITLAFSKKKIDDRKEWLTNFMEDRRQRRLHGLPEQFLYGTATKHLTYNDFINKELILFSNSDNERSIPSLVDGFKPGQRKVLFTCFKRNDKREVKVAQLAGSVAEMSAYHHGEQALMMTIVNLAQNFVGSNNINLLQPIGQFGTRLHGGKDAASPRYIFTMLSTLARLLFPAVDDNLLKFLYDDNQRVEPEWYIPIIPMVLINGAEGIGTGWACKLPNYDAREIVNNVRRMLDGLDPHPMLPNYKNFKGTIQELGQNQYAVSGEIFVVDRNTVEITELPVRTWTQVYKEQVLEPMLNGTDKTPALISDYKEYHTDTTVKFVVKMTEEKLAQAEAAGLHKVFKLQTTLTCNSMVLFDHMGCLKKYETVQDILKEFFDLRLSYYGLRKEWLVGMLGAESTKLNNQARFILEKIQGKITIENRSKKDLIQMLVQRGYESDPVKAWKEAQEKAAEEDETQNQHDDSSSDSGTPSGPDFNYILNMSLWSLTKEKVEELIKQRDAKGREVNDLKRKSPSDLWKEDLAAFVEELDKVESQERED
modifications: catalytic tyrosine (Tyr821) joined to the 5′-phosphate of the cleaved G-segment DNA by a phosphotyrosyl linkage
notes: Not seen in 5ZEN chain A: 445-451, 597-602, 616-624, 703-706, 1112-1134; the His tag is surmised from the Ni-NTA step; also called hTop2^core; Top2 cleavage complex; source: E. coli BL21 (DE3) Star-pLysS, purified (Ni-NTA, heparin, Superdex 200)
Turning to B3, the binding result in data set [3] is recorded as “binds”.

For the origin of these results see paper PMC6078968, “Structural insights into the gating of DNA passage by the topoisomerase II DNA-gate” (Nature Communications, 2018).
